Measurements: publication PMC5397183
Read-outs that look alike come from different tables or passages of the source.

T1: FadR WT (native, crystal) (Bacillus halodurans, UniProt Q9K8A4 1-195)
T1 sequence: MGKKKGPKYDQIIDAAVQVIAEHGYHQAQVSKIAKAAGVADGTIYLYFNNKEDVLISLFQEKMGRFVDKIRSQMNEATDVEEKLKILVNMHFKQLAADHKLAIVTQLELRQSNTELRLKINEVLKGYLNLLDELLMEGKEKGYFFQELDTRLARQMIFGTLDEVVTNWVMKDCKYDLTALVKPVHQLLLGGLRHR


Experiments:
[1] = biological target: Bacillus halodurans FadR (native) (Bacillus halodurans); test: crystal structure
[2] = biological target: Bacillus halodurans FadR (native) (Bacillus halodurans); test: crystal structure; remark: listed apart in the source
[3] = biological target: T1, FadR WT (native, crystal); test: X-ray crystallography

Molecule	stoichiometry N [1]	stoichiometry N [2]	binding result [3]
Bacillus halodurans FadR (native) (natural protein)	2	2	
21OH fadR promoter (dsDNA) DNA 1: GATGAATGAATACTCATTCAT DNA 2: CATGAATGAGTATTCATTCAT			binds
